Measurements from patent publication US20240192215A1 (E AND S HEALTHCARE, published 2024).
One block for each binder: values may come before it.

Columns and labels:
[1] = biological target: T1, Peptide_052 (human); assay: peptide microarray, 0.0016 ug/mL
T1 construct: 15-mer of hTrx1 on microarray
T1 peptide: CKMIKPFFHSLSEKY
Procedure: (§1) 5, 1, 0.2, 0.04, 0.008 and 0.0016 μg/mL serial dilutions were incubated on a single multi-well microarray slide at 30° C. for 1 hour. The slide includes 21 individual mini-arrays (one mini-array per sample dilution).
(§2) DyLight 650 was used as a label. False-positive binding to a peptide was evaluated by performing one additional control incubation in which only a secondary antibody was applied on the same microarray slide. Before performing each step, the microarrays were washed with a washing buffer.

[2] = biological target: T2, Peptide_053 (human); assay: peptide microarray, 0.0016 ug/mL
T2 construct: 15-mer of hTrx1 on microarray
T2 peptide: KMIKPFFHSLSEKYS
Procedure: as §1, §2

[3] = biological target: T3, Peptide_046 (human); assay: peptide microarray, 0.0016 ug/mL
T3 construct: 15-mer of hTrx1 on microarray
T3 peptide: ATWCGPCKMIKPFFH
Procedure: as §1, §2

[4] = biological target: T4, Peptide_048 (human); assay: peptide microarray, 0.0016 ug/mL
T4 construct: 15-mer of hTrx1 on microarray
T4 peptide: WCGPCKMIKPFFHSL
Procedure: as §1, §2

[5] = biological target: T1, Peptide_052; assay: peptide microarray, 5 ug/mL
Procedure: as §1, §2

[6] = biological target: T5, Peptide_054 (human); assay: peptide microarray, 5 ug/mL
T5 construct: 15-mer of hTrx1 on microarray
T5 peptide: MIKPFFHSLSEKYSN
Procedure: as §1, §2

[7] = biological target: T6, Peptide_057 (human); assay: peptide microarray, 5 ug/mL
T6 construct: 15-mer of hTrx1 on microarray
T6 peptide: PFFHSLSEKYSNVIF
Procedure: as §1, §2

[8] = biological target: T7, Peptide_056 (human); assay: peptide microarray, 5 ug/mL
T7 construct: 15-mer of hTrx1 on microarray
T7 peptide: KPFFHSLSEKYSNVI
Procedure: as §1, §2

[9] = biological target: T2, Peptide_053; assay: peptide microarray, 5 ug/mL
Procedure: as §1, §2

[10] = biological target: T3, Peptide_046; assay: peptide microarray, 5 ug/mL
Procedure: as §1, §2

[11] = biological target: T8, Peptide_047 (human); assay: peptide microarray, 5 ug/mL
T8 construct: 15-mer of hTrx1 on microarray
T8 peptide: TWCGPCKMIKPFFHS
Procedure: as §1, §2

[12] = biological target: T9, Peptide_049 (human); assay: peptide microarray, 5 ug/mL
T9 construct: 15-mer of hTrx1 on microarray
T9 peptide: CGPCKMIKPFFHSLS
Procedure: as §1, §2

[13] = biological target: T4, Peptide_048; assay: peptide microarray, 5 ug/mL
Procedure: as §1, §2

[14] = biological target: T10, Peptide_050 (human); assay: peptide microarray, 5 ug/mL
T10 construct: 15-mer of hTrx1 on microarray
T10 peptide: GPCKMIKPFFHSLSE
Procedure: as §1, §2

[15] = biological target: T11, Peptide_055 (human); assay: peptide microarray, 5 ug/mL
T11 construct: 15-mer of hTrx1 on microarray
T11 peptide: IKPFFHSLSEKYSNV
Procedure: as §1, §2

[16] = biological target: T12, human thioredoxin-1 (Trx1) (human, UniProt P10599 1-105); assay: ELISA on 100 ng coated Trx1, antibody titration, Prism fit
T12 construct: also called hTrx1; hTRX1
T12 sequence (looked up): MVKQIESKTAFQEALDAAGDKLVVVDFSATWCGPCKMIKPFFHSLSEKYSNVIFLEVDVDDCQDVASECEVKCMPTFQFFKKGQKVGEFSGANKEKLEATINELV
Procedure: 100 μl of a coating buffer and 100 ng of Trx1 were mixed and dispensed to each well, and then reacted at 4° C. for 16 hours or more. After the reaction solution was removed, 200 μl of PBSA was dispensed to each well and reacted at 37° C. for 120 minutes. […] After the reaction solution was removed, washing was performed by dispensing 200 μl of a washing buffer to each well. The above-described process was performed two times.
After the reaction solution was removed, washing was performed by dispensing 200 μl of a washing buffer to each well. The above-described process was performed three times.

[17] = biological target: T1, Peptide_052; assay: peptide microarray, head 0.08 ug (text 0.008 ug/mL)
Procedure: as §1, §2

[18] = biological target: T5, Peptide_054; assay: as above
Procedure: as §1, §2

[19] = biological target: T6, Peptide_057; assay: as above
Procedure: as §1, §2

[20] = biological target: T7, Peptide_056; assay: as above
Procedure: as §1, §2

[21] = biological target: T2, Peptide_053; assay: as above
Procedure: as §1, §2

[22] = biological target: T3, Peptide_046; assay: as above
Procedure: as §1, §2

[23] = biological target: T8, Peptide_047; assay: as above
Procedure: as §1, §2

[24] = biological target: T9, Peptide_049; assay: as above
Procedure: as §1, §2

[25] = biological target: T4, Peptide_048; assay: as above
Procedure: as §1, §2

[26] = biological target: T10, Peptide_050; assay: as above
Procedure: as §1, §2

[27] = biological target: T11, Peptide_055; assay: as above
Procedure: as §1, §2

[28] = biological target: T1, Peptide_052; assay: peptide microarray, 1 ug/mL
Procedure: as §1, §2

[29] = biological target: T5, Peptide_054; assay: peptide microarray, 1 ug/mL
Procedure: as §1, §2

[30] = biological target: T6, Peptide_057; assay: peptide microarray, 1 ug/mL
Procedure: as §1, §2

[31] = biological target: T7, Peptide_056; assay: peptide microarray, 1 ug/mL
Procedure: as §1, §2

[32] = biological target: T2, Peptide_053; assay: peptide microarray, 1 ug/mL
Procedure: as §1, §2

[33] = biological target: T3, Peptide_046; assay: peptide microarray, 1 ug/mL
Procedure: as §1, §2

[34] = biological target: T8, Peptide_047; assay: peptide microarray, 1 ug/mL
Procedure: as §1, §2

[35] = biological target: T9, Peptide_049; assay: peptide microarray, 1 ug/mL
Procedure: as §1, §2

[36] = biological target: T4, Peptide_048; assay: peptide microarray, 1 ug/mL
Procedure: as §1, §2

[37] = biological target: T10, Peptide_050; assay: peptide microarray, 1 ug/mL
Procedure: as §1, §2

[38] = biological target: T11, Peptide_055; assay: peptide microarray, 1 ug/mL
Procedure: as §1, §2

signal (blank-control = 1) [1]: 1.15 | signal (blank-control = 1) [2]: 1.41 | signal (blank-control = 1) [3]: 1.69 | signal (blank-control = 1) [4]: 7.46 | signal (blank-control = 1) [5]: 5.14 | signal (blank-control = 1) [6]: 1.46 | signal (blank-control = 1) [7]: 2.44 | signal (blank-control = 1) [8]: 2.86 | signal (blank-control = 1) [9]: 6.49 | signal (blank-control = 1) [10]: 6.2 | signal (blank-control = 1) [11]: 4.89 | signal (blank-control = 1) [12]: 1.11 | signal (blank-control = 1) [13]: 2.15 | signal (blank-control = 1) [14]: 0.54 | signal (blank-control = 1) [15]: 3.57 | Kd [16]: 0.13 nM | signal (blank-control = 1) [17]: 1.23 | signal (blank-control = 1) [18]: 0.63 | signal (blank-control = 1) [19]: 2.27 | signal (blank-control = 1) [20]: 1.11 | signal (blank-control = 1) [21]: 1.76 | signal (blank-control = 1) [22]: 2.11 | signal (blank-control = 1) [23]: 1.52 | signal (blank-control = 1) [24]: 1.43 | signal (blank-control = 1) [25]: 7.68 | signal (blank-control = 1) [26]: 0.65 | signal (blank-control = 1) [27]: 0.99 | signal (blank-control = 1) [28]: 4.43 | signal (blank-control = 1) [29]: 1.43 | signal (blank-control = 1) [30]: 2.19 | signal (blank-control = 1) [31]: 2.58 | signal (blank-control = 1) [32]: 8.52 | signal (blank-control = 1) [33]: 5.62 | signal (blank-control = 1) [34]: 4.07 | signal (blank-control = 1) [35]: 1.2 | signal (blank-control = 1) [36]: 3.91 | signal (blank-control = 1) [37]: 0.47 | signal (blank-control = 1) [38]: 3.26
B1: monoclonal antibody B264 (antibody, mouse IgG1, kappa, V domains shown)
VH: QVQLQQSGAELARPGASVKMSCKASGYTFTSYTMHWVKQRPGQGLEWIGYINPTSDYTNYNQKFKDKATLTADKSSSTAYMQLSSLTSEDSAVYFCASEGGFLYYFDYWGQGTTLTVSS
VL: DVLMTQTPLSLPVSLGDQASISCRSSQSIVHSNGNTYLEWYLQKPGQSPKLLIYKVSNRFSGVPDRFSGSGSGTDFTLKISRVEAEDLGVYYCFQGSHVPYTFGGGTKLEIKR
notes: also called AB264; B264 (Trx1-mIgG1)

signal (blank-control = 1) [1]: 1.37 | signal (blank-control = 1) [2]: 1.42 | signal (blank-control = 1) [3]: 1.79 | signal (blank-control = 1) [4]: 7.61 | signal (blank-control = 1) [5]: 3.84 | signal (blank-control = 1) [6]: 2.36 | signal (blank-control = 1) [7]: 2.39 | signal (blank-control = 1) [8]: 2.89 | signal (blank-control = 1) [9]: 2.45 | signal (blank-control = 1) [10]: 6.41 | signal (blank-control = 1) [11]: 5.58 | signal (blank-control = 1) [12]: 2.89 | signal (blank-control = 1) [13]: 6.1 | signal (blank-control = 1) [14]: 2.19 | signal (blank-control = 1) [15]: 2.08 | Kd [16]: 0.011 nM | signal (blank-control = 1) [17]: 1.12 | signal (blank-control = 1) [18]: 0.71 | signal (blank-control = 1) [19]: 2.09 | signal (blank-control = 1) [20]: 1.07 | signal (blank-control = 1) [21]: 1.44 | signal (blank-control = 1) [22]: 1.64 | signal (blank-control = 1) [23]: 1.11 | signal (blank-control = 1) [24]: 1.31 | signal (blank-control = 1) [25]: 7.25 | signal (blank-control = 1) [26]: 0.52 | signal (blank-control = 1) [27]: 0.85 | signal (blank-control = 1) [28]: 2.38 | signal (blank-control = 1) [29]: 1.15 | signal (blank-control = 1) [30]: 2.07 | signal (blank-control = 1) [31]: 1.84 | signal (blank-control = 1) [32]: 2.13 | signal (blank-control = 1) [33]: 3.18 | signal (blank-control = 1) [34]: 2.25 | signal (blank-control = 1) [35]: 1.96 | signal (blank-control = 1) [36]: 6 | signal (blank-control = 1) [37]: 1.09 | signal (blank-control = 1) [38]: 1.38
B2: monoclonal antibody B266-1 (antibody, human IgG1)
light: QIVLTQSPAIMSASPGEKVTMTCSASSRISYMYWYQQKPGTSPKRWIYDTSKLASGVPARFSGSGSGTSYSLTISTMEAEDAATYYCHQRSSYPTFGAGTKLELKSVAAPSVFIFPPSDEQLKSGTASVVCLLNNFYPREAKVQWKVDNALQSGNSQESVTEQDSKDSTYSLSSTLTLSKADYEKHKVYACEVTHQGLSSPVTKSFNRGEC
heavy: not shown
notes: B266 with the Fc part changed to human IgG1; also called B266-1 (Trx1-hIgG1); B266-1 (hTrx1-hIgG1)
